Where two headings read alike, the source gives them in different places.
How the values were obtained:
[1] = target: T1, SARS-CoV-2 S protein of the wild-type, on pseudotyped lentiviral particles (SARS-CoV-2); assay: cell-based or functional assay
SARS-CoV RBD = SARS-CoV RBD (SARS-CoV, UniProt P59594 306-527); assay: ELISA, 0.1 ug antigen coated
[2] = target: T1, SARS-CoV-2 S protein of the wild-type, …; assay: cell-based or functional assay; remark: listed apart in the source
[3] = target: T2, SARS-CoV-2 RBD (wild-type) (SARS-CoV-2, UniProt P0DTC2 319-541)
SARS-CoV-2 S1 domain = SARS-CoV-2 S1 domain (SARS-CoV-2, UniProt P0DTC2 14-685); assay: ELISA: IgG titrated on plate-bound S1, absorbance at 450 nm
[4] = target: T2, SARS-CoV-2 RBD (wild-type); assay: SPR, RBD immobilised, 1:1 model
[5] = target: T2, SARS-CoV-2 RBD (wild-type); assay: SPR, RBD immobilised
[6] = target: T2, SARS-CoV-2 RBD (wild-type); assay: SPR (FIG. 24)
[7] = target: SARS-CoV-2 RBD protein (Fc-tagged) (SARS-CoV-2, UniProt P0DTC2 319-541)
[8] = target: T2, SARS-CoV-2 RBD (wild-type); assay: competition ELISA: RBD-His with antibody, binding to coated hACE2-Fc
[9] = target: T2, SARS-CoV-2 RBD (wild-type); remark: listed apart in the source
[10] = target: T2, SARS-CoV-2 RBD (wild-type); assay: ELISA, antigen coated, antibody titrated, A450

B1: RD3 (antibody, V domains shown)
VH: EVQLLESGGGLVQPGGSLRLSCAASGFTFSDYAMSWVRQAPGKGLEWVSWIYSGSGNKYYADSVKGRFTISRDNSKNTLYLQMNSLRAEDTAVYYCARFPIARTSNSQSSYDGMDVWGQGTLVTVSS
VL: QSVLTQPPSASGTPGQRVTISCSGSSSNIGSNAVSWYQQLPGTAPKLLIYADNKRPSGVPDRFSGSKSGTSASLAISGLRSEDEADYYCGAWDSSLNAYVFGGGTKLTVL
notes: also called K102.1
[1]
  IC50 (nM), pseudotyped virus infection: 1.94 nM
SARS-CoV RBD
  binding result: binds
[2]
  IC50 (nM), pseudovirus neutralization, luciferase in 293T/hACE2 cells: 1.94 nM

B2: RG6 (antibody, V domains shown)
VH: EVQLLESGGGLVQPGGSLRLSCAASGFTFSDYSMSWVRQAPGKGLEWVSGIYHSDGSKYYADSVKGRFTISRDNSKNTLYLQMNSLRAEDTAVYYCARFDPVFDYWGQGTLVTVSS
VL: QSVLTQPPSASGTPGQRVTISCTGSSSNIGSNAVNWYQQLPGTAPKLLIYADSNRPSGVPDRFSGSKSGTSASLAISGLRSEDEADYYCGAWDASLSAYVFGGGTKLTVL
[3]
  Kd: 0.481 nM
SARS-CoV-2 S1 domain
  Kd: 0.22 nM

B3: RB6 (antibody, V domains shown)
VH: EVQLLESGGGLVQPGGSLRLSCAASGFTFSSYDMSWVRQAPGKGLEWVSGISYSGGSTYYADSVKGRFTISRDNSKNTLYLQMNSLRAEDTAVYYCARDVNFVPLVTFDYWGQGTLVTVSS
VL: QSVLTQPPSASGTPGQRVTLSCTGSSSNIGSNSVTWYQQLPGTAPKLLIYDDNQRPSGVPDRFSGSKSGTSASLAISGLRSEDEADYYCGTWDYSLSAYVFGGGTKLTVL
notes: also called K102.2
[4]
  Kd: 2.2 nM
  kon: 197000 M⁻¹ s⁻¹
[3]
  Kd: 0.716 nM
SARS-CoV RBD
  binding result: binds
SARS-CoV-2 S1 domain
  Kd: 3.2 nM
[5]
  Kd: 2.2 nM
  kon: 197000 M⁻¹ s⁻¹
[6]
  Kd: 2.46 nM
  fold affinity against K102.3: ~5 fold
[7]
  IC50: 1.95 nM
[8]
  IC50: 4.94 nM

B4: HA-tagged K102.2 (K102.2-HA) (antibody, V domains shown)
VH: EVQLLESGGGLVQPGGSLRLSCAASGFTFSSYDMSWVRQAPGKGLEWVSGISYSGGSTYYADSVKGRFTISRDNSKNTLYLQMNSLRAEDTAVYYCARDVNFVPLVTFDYWGQGTLVTVSS
VL: QSVLTQPPSASGTPGQRVTLSCTGSSSNIGSNSVTWYQQLPGTAPKLLIYDDNQRPSGVPDRFSGSKSGTSASLAISGLRSEDEADYYCGTWDYSLSAYVFGGGTKLTVL
[9]
  EC50 (read off the curve): ~0.05 µg/mL

B5: RD10 (antibody, V domains shown)
VH: EVQLLESGGGLVQPGGSLRLSCAASGFTFSDYAMSWVRQAPGKGLEWVSAIYPGGGSTYYADSVKGRFTISRDNSKNTLYLQMNSLRAEDTAVYYCARNLFGFDYWGQGTLVTVSS
VL: QSVLTQPPSASGTPGQRVTISCTGSSSNIGSNAVYWYQQLPGTAPKLLIYDDSNRPSGVPDRFSGSKSGTSASLAISGLRSEDEADYYCGSWDDSLSAYVFGGGTKLTVL
[3]
  Kd: 0.55 nM
[10]
  Kd: ~0.1 nM
SARS-CoV-2 S1 domain
  Kd: 0.317 nM
[7]
  IC50: 1.97 nM

B6: RB4 (antibody, V domains shown)
VH: EVQLLESGGGLVQPGGSLRLSCAASGFTFSDYSMSWVRQAPGKGLEWVSGIYHSDGSKYYADSVKGRFTISRDNSKNTLYLQMNSLRAEDTAVYYCARFDPVFDYWGQGTLVTVSS
VL: QSVLTQPPSASGTPGQRVTISCSGSSSNIGSNAVSWYQQLPGTAPKLLIYDNNHRPSGVPDRFSGSKSGTSASLAISGLRSEDEADYYCGSWDDSLNAYVFGGGTKLTVL
[3]
  Kd: 0.186 nM
SARS-CoV-2 S1 domain
  Kd: 0.169 nM
[7]
  IC50: 0.841 nM
